Values of other authors in publication PMC3440555 (Bioconjugate chemistry, 2012).

How the values were obtained:
[1] = test system: B16/F1 melanoma-bearing C57 mice
[2] = test system: B16/F1 melanoma-bearing mouse; conditions: flank primary B16/F1 melanoma and B16/F10 pulmonary melanoma metastases; 2 h post-injection
[3] = target: melanocortin-1 (MC1) receptor (Mus musculus, UniProt Q01727); conditions: read-out: MC1 receptor binding affinity (IC50 value); B16/F1 melanoma cells
Chain of melanocortin-1 (MC1) receptor (Q01727 whole entry): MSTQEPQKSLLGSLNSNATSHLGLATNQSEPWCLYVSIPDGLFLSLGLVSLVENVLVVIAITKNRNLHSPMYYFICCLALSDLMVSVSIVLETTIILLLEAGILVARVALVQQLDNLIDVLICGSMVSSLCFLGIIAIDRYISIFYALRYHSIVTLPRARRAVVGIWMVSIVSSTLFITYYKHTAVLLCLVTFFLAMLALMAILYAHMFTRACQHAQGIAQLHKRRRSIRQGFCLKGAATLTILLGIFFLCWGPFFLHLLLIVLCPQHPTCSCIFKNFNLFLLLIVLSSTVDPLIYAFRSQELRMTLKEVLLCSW

| IC50 [3] [nM] | Substance | Decrease of renal uptake by L-lysine co-injection ([1]; 2 h post-injection, melanoma uptake not affected) [%] | Renal uptake ([1]; mouse, in vivo, 2 h) [%ID/g] | Tumor uptake ([1]; mouse, in vivo, 2 h) [%ID/g] | Visualization of melanoma by SPECT/CT [2] |
| --- | --- | --- | --- | --- | --- |
|  | ^67Ga-DOTA-Gly-Glu-c[Lys-Nle-Glu-His-DPhe-Arg-Trp-Gly-Arg-Pro-Val-Asp] [^67Ga-DOTA-GlyGlu-CycMSH] | 69.8 | 27.55 ± 7.87 | 12.93 ± 1.63 | clearly visualized |
| 2.1 | DOTA-GGNle-CycMSHhex: non-radiolabeled DOTA-conjugated lactam bridge-cyclized alpha-MSH peptide, DOTA-Gly-Gly-Nle-c[Asp-His-DPhe-Arg-Trp-Lys]-CONH2 |  |  |  |  |
